{
  "source": "paper PMC4618444",
  "about": "“Evaluation and directed evolution for thermostability improvement of a GH 13 thermostable α-glucosidase from Thermus thermophilus TC11” (BMC Biotechnology, 2015)",
  "proteins": {"B1": {"name": "TtAG (Thermus thermophilus; Q10Y) (protein)", "chain": "MWWKEAVIYYVYPRSFQDTNGDGVADVEGVRRRLPYLKSLGVDAIWLSPFYKSPMKDFGYDLADYCDVDPIFGTLQDFDRLLEEAHALGLRVLVDLVPNHTSSEHPWFLESRASRNSPKRDWYIWKDPAPDGGPPNNWQSFFGGPAWTLDEATGQYYLHQFLPEQPDLNWRNPEVREALYEVMRFWLRRGVDGFRVDVLWLLAEDLLFKDEPGNPDWRPGMWDRGRHLHIFTEDQPETYAYVREMRQVLDEFSEPGRERVMVGEIYLPYPQLLRYYQAGCHLPFNFHLIFRGLPDWRPENLARIVEEYESLLTRWDWPNWVLGNHDQPRLASRLGEAQARVGAMLLFTLRGTPTWYYGDEIGMKNGEIPPEKVQDPAALRQKDRLGEHQLPPGRDPERTPMQWDDTPFAGFSTVEPWLPVNPDYKTRNVAAQENDPRSMLHLVRRLIALRKDPDLLYGAYRTYRAREGVYAYLRGEGWLVAINLTEKEKALELPRGGRVVLTTHLDREERVGERLLLRPDEGVVVRLD"}, "B2": {"name": "TtAG (Thermus thermophilus) (protein)", "chain": "MWWKEAVIYQVYPRSFQDTNGDGVADVEGVRRRLPYLKSLGVDAIWLSPFYKSPMKDFGYDLADYCDVDPIFGTLQDFDRLLEEAHALGLRVLVDLVPNHTSSEHPWFLESRASRNSPKRDWYIWKDPAPDGGPPNNWQSFFGGPAWTLDEATGQYYLHQFLPEQPDLNWRNPEVREALYEVMRFWLRRGVDGFRVDVLWLLAEDLLFKDEPGNPDWRPGMWDRGRHLHIFTEDQPETYAYVREMRQVLDEFSEPGRERVMVGEIYLPYPQLLRYYQAGCHLPFNFHLIFRGLPDWRPENLARIVEEYESLLTRWDWPNWVLGNHDQPRLASRLGEAQARVGAMLLFTLRGTPTWYYGDEIGMKNGEIPPEKVQDPAALRQKDRLGEHQLPPGRDPERTPMQWDDTPFAGFSTVEPWLPVNPDYKTRNVAAQENDPRSMLHLVRRLIALRKDPDLLYGAYRTYRAREGVYAYLRGEGWLVAINLTEKEKALELPRGGRVVLTTHLDREERVGERLLLRPDEGVVVRLD", "notes": "trimer by DLS (184 kDa)"}},
  "key": {"purified protein": {"substrate": "O=[N+]([O-])c1ccc(O[C@H]2O[C@H](CO)[C@@H](O)[C@H](O)[C@H]2O)cc1", "assay": "purified protein"}, "[1]": {"substrate": "OC[C@H]1O[C@@](CO)(O[C@H]2O[C@H](CO)[C@@H](O)[C@H](O)[C@H]2O)[C@@H](O)[C@@H]1O", "assay": "glucose release, glucose oxidase assay", "format": "biochemical, Thermus thermophilus", "details": "90 °C, citric acid-sodium phosphate buffer pH 5.0"}, "[2]": {"substrate": "OC[C@H]1O[C@H](O[C@H]2O[C@H](CO)[C@@H](O)[C@H](O)[C@H]2O)[C@H](O)[C@@H](O)[C@@H]1O", "assay": "glucose release, glucose oxidase assay", "format": "biochemical, Thermus thermophilus", "details": "90 °C, citric acid-sodium phosphate buffer pH 5.0"}, "[3]": {"details": "optimal reaction conditions (90 °C, pH 5.0), substrate pNPG implied by context"}, "[4]": {"details": "90 °C, citric acid-sodium phosphate buffer pH 5.0"}},
  "data": [
    {"protein": "B1", "values": [
      {"measurement": "Km", "setting": "purified protein; [3]", "result": 0.46, "unit": "mM"},
      {"measurement": "kcat", "setting": "purified protein; [3]", "result": 356.57, "unit": "s⁻¹"}
    ]},
    {"protein": "B2", "values": [
      {"measurement": "Km", "setting": "purified protein; [4]", "result": 0.48, "unit": "mM"},
      {"measurement": "kcat", "setting": "purified protein; [4]", "result": 659, "unit": "s⁻¹"},
      {"measurement": "kcat/Km", "setting": "purified protein; [4]", "result": "1.37e+06", "unit": "M⁻¹ s⁻¹"},
      {"measurement": "Km", "setting": "[1]", "result": 30.53, "unit": "mM"},
      {"measurement": "kcat", "setting": "[1]", "result": 74.6, "unit": "s⁻¹"},
      {"measurement": "kcat/Km", "setting": "[1]", "result": 2460, "unit": "M⁻¹ s⁻¹"},
      {"measurement": "Km", "setting": "[2]", "result": 19.96, "unit": "mM"},
      {"measurement": "kcat", "setting": "[2]", "result": 140, "unit": "s⁻¹"},
      {"measurement": "kcat/Km", "setting": "[2]", "result": 7020, "unit": "M⁻¹ s⁻¹"}
    ]}
  ]
}
